Data set [1] deals with MC38 cells. Briefly: OVA peptide loading in the presence of furin inhibitor. The data set is classed as cell-based, murine. Conditions: IRC 2.5 μg/mL. How it is done: (Millipore-Sigma, St. Louis, MO). This furin inhibitor binds irreversibly to the catalytic site of furin, blocking all furin protease activity.
Briefly, 2×10^5 MC38 cells (murine colon adenocarcinoma, #ENH204-FP, Kerafast, Inc., Boston MA) were seeded in a FACs tube and then incubated with either 0.5 μM, […], or 50 μM furin inhibitor dissolved in DMSO at total final sample volume of 200 μL. Control samples containing no inhibitor were prepared the same way with the same volume equivalent of DMSO. The samples were incubated for fifteen minutes in a tissue culture incubator at 37° C., 5% CO2. Then, 2.5 μg/mL of OVA-conjugated MPV.10.34.d IRC was added to all samples and the samples were incubated in a tissue culture incubator at 37° C., 5% CO2. Samples were then washed twice with 2 to 3 mL FACS buffer and then stained with PE-conjugated-mouse anti-mouse MHC I bounded with OVA (SIINFEKL, SEQ ID NO:95) monoclonal antibody (Biolegend, Cat #141604, San Diego, CA) for 30 minutes at 4° C. Following this, samples were washed once with 3 mL FACS buffer then the cells were resuspended in 250 μL of FACS buffer before being analyzed by a CytoFLEX flow cytometer. (Beckman Coulter Life Sciences, Brea, CA, US).

For data set [2] the following is noted: HPV16 L1 deletion mutants; cited from earlier work.
A short description of data set [3]: Transmission electron microscopy (TEM) size and structure. Type of data set: physicochemical. Particulars: purified refolded capsid backbone. As to the method: TEM analysis was also employed to obtain further visual confirmation of the structure and size of the refolded proteins. Samples (10 μL) were adsorbed to glow discharged (EMS GloQube) carbon coated 400 mesh copper grids (EMS), by floatation for 2 min. Grids were quickly blotted and then rinsed in 3 drops (1 min each) of TBS. Grids were negatively stained in 2 consecutive drops of 1% uranyl acetate with tylose (1% UAT, double filtered, 0.22 μm filter), blotted then quickly aspirated to obtain a thin layer of stain covering the sample. Grids were imaged on a Phillips CM-120 TEM operating at 80 kV with an AMT XR80 CCD (8 megapixel).

Data set [4] deals with MPV.A4 monoclonal antibody. Put plainly: ELISA with MPV.A4 conformational monoclonal antibody. The data set is classed as binding. As to the method:
The MPV.A4 antibody is a conformational antibody that specifically binds to MPV L1 in the form of T=1 or T=7 capsid backbone structure. This antibody will not bind to denatured or monomeric MPV L1. (Hafenstein et al., 2020, “Atomic Resolution CRYOEM structure of Mouse Papillomavirus,” International Papillomavirus Conference, Jul. 20-24, 2020). To determine whether MPV.10.34.d undergoing the steps in Example 1 or Example 4 yields a T=1 capsid backbone, ELISA was performed on these samples with the MPV.A4 monoclonal antibody.
Samples from Example 1 and Example 4 of equal concentrations (starting concentration of 1000 ng/well) were subjected to ELISA. To ensure that both soluble and refolded MPV.10.34.d were equally bound to the ELISA plate (Nunc Maxisorp, ThermoFisher Scientific, Waltham, MA, US), both samples were first buffer exchanged into either 50 mM NaPO4, 450 mM NaCl at pH 6 or pH 7. […] Based on this, a total of four sample conditions were two-fold serially diluted and subjected to ELISA with the MPV.A4 monoclonal antibody.
Briefly, eight different amounts of protein (7.8 ng to 1 μg) for each sample under both pH conditions (into either 50 mM NaPO4, 450 mM NaCl at pH 6 or pH 7) were first added to the ELISA plate and the plate was stored at 4° C. […] The absorbance of the sample plates were read at 450 nm and 620 nm with a plate reader (BioTek, Winooski, VT, US).

Data set [5] has as its system MC38 cells. Put plainly: In vitro cell binding assay (flow cytometry), MC38. The data set is classed as cell-based, murine. Conditions: MC38, 1 h 37° C. As to the method:
(§1) To assess whether IRC bind to tumor cells, an in vitro cell binding assay was conducted. Specifically, both MPV.10.34.d capsid backbones (unconjugated) as well as different conjugated IRC (human CMV pp65, murine E7, and murine OVA peptide) were examined.
(§2) Briefly, 2×10^5 MC38 cells (murine colon adenocarcinoma, #ENH204-FP Kerafast, Inc., Boston MA) or pgsA-745 cells (Chinese hamster ovary cell mutant deficient in xylosyltransferase (UDP-D-xylose:serine-1,3-D-xylosyltransferase, ATCC CRL-2242) in which heparin sulfate proteoglycan (HSPG) expression is knocked out, were seeded overnight. The next day, the cells were treated with human CMV pp65, murine HPV16 E7, and murine OVA peptide, as well as the MPV.10.34.d capsid backbone for one hour at 37° C. Cells were then washed twice with 2 to 3 mL of a fluorescence activated cell sorting (FACS) buffer (1% bovine serum albumin in PBS) and then stained with 1 mL of rabbit anti-musPsV serum antibodies for 30 minutes at 4° C. Following this, samples were washed once with 3 mL FACS buffer and stained with 0.5 mL of donkey anti-rabbit IgG-PE antibody (Biolegend, San Diego, CA) for 30 min at 4° C. in the dark. Finally, samples were washed once more with 3 mL FACS buffer and then resuspended in […] of FACS buffer before being analyzed by a CytoFLEX flow cytometer (Beckman Coulter Life Sciences, Brea, CA, US).
(In general: In flow cytometry, cells or beads pass a laser one at a time.)

For another data set, the system named is pgsA-745 cells. Briefly: In vitro cell binding assay (flow cytometry), HSPG knock-out cells. The data set is classed as cell-based, Chinese hamster. Conditions: pgsA-745, 1 h 37° C. As to the method:
as §1, §2

For the next data set, the system named is HCT116. Briefly: In vitro cytotoxicity assay with human CMV T cells, HCT116. Particulars: HCT116, 2.5 μg/mL, E:T 10:1, 24 hrs. The data set is classed as cell-based. As to the method: (§3) In these experiments, CD8+ T cell responses to CMV peptides were tested in three different human tumor cell lines, including HCT116, OVCAR3, and MCF7. All three of these human tumor cell lines are HLA-A*0201 positive.
(§4) In Vitro Cytotoxicity Assays. […], human colon cancer cells, MCF7, human breast cancer cells, and OVCAR3, human ovarian cancer cells (all from ATCC, Manassas, VA, US) were seeded overnight at 0.01 to 0.2×10^6 per well per 100 μL per 96 well plate. The next day (about 20 to 22 hrs later), each cell line was incubated for one hour at 37° C. under the following conditions: (1) CMV peptide at a final concentration of 1 μg/mL (positive control), (2) MPV.10.34.d at a final concentration of 2.5 μg/mL (negative control), (3) CMV-conjugated MPV.10.34.d IRC at a final concentration of 2.5 μg/mL, (4) CMV-conjugated HPV16 IRC at a final concentration of 2.5 μg/mL, and (5) no antigen (negative control). After 1 hour, the cells were washed vigorously with 200 μL of media for three times to remove non-specific binding. […] Cell viability was measured after co-culturing. Cell viability was measured with CELLTITER-GLO® (Promega, Madison, WI, US). […] The amount of ATP generated from tumor cells was quantified according to manufacturer protocols.

For a further data set, the system named is OVCAR3. Put plainly: In vitro cytotoxicity assay with human CMV T cells, OVCAR3. The data set is classed as cell-based. Conditions: OVCAR3, 2.5 μg/mL, E:T 10:1, 24 hrs. How it is done:
as §3, §4

The subject of the next data set is MCF7. Put plainly: In vitro cytotoxicity assay with human CMV T cells, MCF7. The data set is classed as cell-based. Particulars: MCF7, 2.5 μg/mL, E:T 10:1, 24 hrs. How it is done:
as §3, §4

Data set [6] can be described thus: ELISA of anti-MPV.10.34.d IRC sera. Type of data set: binding, mice. Conditions: serum from 1:100, two-fold dilutions. As to the method:
(§5) Antibodies against wild type MPV were generated as follows: New Zealand white rabbits (n=3) were administered three intra-muscular vaccinations of 50 μg of wild type mouse papillomavirus particles per dose. Rabbits were vaccinated at months 0, 1, and 2. After two weeks post final vaccination, rabbits were bled to obtain the anti-MPV sera. Antibodies against MPV.10.34.d IRC were obtained as follows: naïve 6 to 8 week old C57/BL6 mice (n=10) were injected systemically with two doses of 150 μg of E7-conjugated MPV.10.34.d over a period of 48 hours. After 48 hours, the mice were bled to obtain the anti-MPV.10.34.d IRC sera.
(§6) Specificity of anti-MPV.10.34.d IRC sera and anti-MPV sera to both MPV.10.34.d capsid backbone and MPV.10.34.d IRC was examined by ELISA. The assays were performed as described in Example 5 with the following differences: serum samples were tested at a 1:100 dilution factor and two-fold serial dilutions. Goat anti-mouse IgG-HRP secondary antibody was used in the ELISA (1:7000). Binding of anti-MPV.10.34.d IRC sera (FIG. 31) and anti-MPV scrum (data not shown) to both MPV.10.34.d capsid backbone (FIG. 31A) and MPV.10.34.d IRC (FIG. 31B) was observed.
On the technique in general: ELISA stands for enzyme-linked immunosorbent assay.

Another data set can be described thus: ELISA of anti-MPV sera. The data set is classed as binding, rabbits. Particulars: data not shown. As to the method: as §5, §6

Consider “decanoyl-RVKR-CMKa [furin inhibitor, reference compound]”, for which the OVA peptide loading entry in the data set with MC38 cells [1] (furin inhibitor 0.5 μM), in the data set with MC38 cells [1] (furin inhibitor 5 μM) and with MC38 cells [1] (furin inhibitor 50 μM) was “prevents OVA-conjugated MPV.10.34.d IRCs from loading OVA epitopes” each time.
Take “ΔN = 0: HPV16 L1 protein without N-terminal deletion (Chen et al., 2000)”: the “Apparent Diameter of Assembled Particle (Å)” value in [2] is 600 Å.

B1: MPV.10.34.d capsid backbone (protein)
chain: MLYLPPTTPVAKVQSTDEYVYPTSLFCHAHTDRLLTVGHPFFSVIDNDKVTVPKVSGNQYRVFRLKFPDPNKFALPQKDFYDPEKERLVWRLRGLEIGRGGPLGIGTTGHPLFNKLGDTENPNKYQQGSKDNRQNTSMDPKQTQLFIVGCEPPTGEHWDVAKPCGALEKGDCPPIQLVNSVIEDGDMCDIGFGNMNFKELQQDRSGVPLDIVSTRCKWPDFLKMTNEAYGDKMFFFGRREQVYARHFFTRNGSVGEPIPNSVSPSDFYYAPDSTQDQKTLAPSVYFGTPSGSLVSSDGQLFNRPFWLQRAQGNNNGVCWHNELFVTVVDNTRNTNFTISQQTNTPNPDTYDSTNFKNYLRHVEQFELSLIAQLCKVPLDPGVLAHINTMNPTILENWNLGFVPPKEREDPYKGLIFWEVDLTERFSQDLDQFALGRKFLYQ
On to B1, for which the “diameter (TEM)” value in data set [3] is given as ~30 nm. The “recognition by MPV.A4 conformational monoclonal antibody” value in [4] (refolded from IBs (Example 1)) is given as “recognized”; in [4] (soluble (Example 4), pH 6 or pH 7), “recognized”. For the same molecule, the “binding to tumor cells (peak shift)” value with MC38 cells [5] was “exhibited specificity for tumor cells”. In addition, the “binding to cells lacking HSPG expression” value in the data set on pgsA-745 cells was “no binding”. Besides, the “redirection of CMV pp65-specific CD8+ T-cells to kill tumor cells” value in the data set on HCT116, with OVCAR3 and with MCF7 was “no background tumor killing” throughout. The “binding of anti-MPV.10.34.d IRC sera (ELISA)” value was “Binding” in data set [6]; “specifically recognize and bind” in [6] (listed as MPV.10.34.d capsid backbones). Besides, the “binding of anti-MPV serum (ELISA)” value in the data set “ELISA of anti-MPV sera” is recorded as “Binding”.

(Values after patent US12344637B2, “Virus-inspired compositions and methods of redirecting preexisting immune responses using the same for treatment of cancer” (priority 2020, dated 2025).)
